Reference: article PMC3764169

Molecular target: αVβ3 integrin (human (endogenous in THP-1)) (UniProt P06756)
Sequence of UniProt P06756 (P06756 31-1048, chain 1 of 2): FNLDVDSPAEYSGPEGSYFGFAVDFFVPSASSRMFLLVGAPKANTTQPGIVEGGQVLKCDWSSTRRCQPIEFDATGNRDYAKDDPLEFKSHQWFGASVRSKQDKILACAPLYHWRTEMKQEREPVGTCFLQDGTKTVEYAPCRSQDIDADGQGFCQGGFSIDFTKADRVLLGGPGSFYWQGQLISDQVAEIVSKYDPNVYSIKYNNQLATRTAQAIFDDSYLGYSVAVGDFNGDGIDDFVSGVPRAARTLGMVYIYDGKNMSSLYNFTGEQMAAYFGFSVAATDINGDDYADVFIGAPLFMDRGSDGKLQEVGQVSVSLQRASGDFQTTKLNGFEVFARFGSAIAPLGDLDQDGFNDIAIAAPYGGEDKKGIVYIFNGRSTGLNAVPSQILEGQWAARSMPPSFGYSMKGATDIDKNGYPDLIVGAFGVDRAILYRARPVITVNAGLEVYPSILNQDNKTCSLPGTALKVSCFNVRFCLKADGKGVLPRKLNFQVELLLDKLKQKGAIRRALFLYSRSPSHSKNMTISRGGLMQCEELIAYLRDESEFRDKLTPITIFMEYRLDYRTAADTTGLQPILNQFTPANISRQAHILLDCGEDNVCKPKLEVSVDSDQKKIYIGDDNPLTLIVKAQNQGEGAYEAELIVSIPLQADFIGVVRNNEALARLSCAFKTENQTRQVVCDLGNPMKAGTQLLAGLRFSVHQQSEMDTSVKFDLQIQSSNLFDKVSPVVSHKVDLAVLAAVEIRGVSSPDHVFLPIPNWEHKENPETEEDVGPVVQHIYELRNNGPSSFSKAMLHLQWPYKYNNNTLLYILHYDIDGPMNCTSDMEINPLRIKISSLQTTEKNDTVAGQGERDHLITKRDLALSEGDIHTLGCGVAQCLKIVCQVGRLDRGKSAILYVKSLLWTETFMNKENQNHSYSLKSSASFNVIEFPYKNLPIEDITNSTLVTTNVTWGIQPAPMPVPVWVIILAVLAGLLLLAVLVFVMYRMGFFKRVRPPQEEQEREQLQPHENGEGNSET
Sequence of UniProt P06756 (P05106 27-788, chain 2 of 2, further chain): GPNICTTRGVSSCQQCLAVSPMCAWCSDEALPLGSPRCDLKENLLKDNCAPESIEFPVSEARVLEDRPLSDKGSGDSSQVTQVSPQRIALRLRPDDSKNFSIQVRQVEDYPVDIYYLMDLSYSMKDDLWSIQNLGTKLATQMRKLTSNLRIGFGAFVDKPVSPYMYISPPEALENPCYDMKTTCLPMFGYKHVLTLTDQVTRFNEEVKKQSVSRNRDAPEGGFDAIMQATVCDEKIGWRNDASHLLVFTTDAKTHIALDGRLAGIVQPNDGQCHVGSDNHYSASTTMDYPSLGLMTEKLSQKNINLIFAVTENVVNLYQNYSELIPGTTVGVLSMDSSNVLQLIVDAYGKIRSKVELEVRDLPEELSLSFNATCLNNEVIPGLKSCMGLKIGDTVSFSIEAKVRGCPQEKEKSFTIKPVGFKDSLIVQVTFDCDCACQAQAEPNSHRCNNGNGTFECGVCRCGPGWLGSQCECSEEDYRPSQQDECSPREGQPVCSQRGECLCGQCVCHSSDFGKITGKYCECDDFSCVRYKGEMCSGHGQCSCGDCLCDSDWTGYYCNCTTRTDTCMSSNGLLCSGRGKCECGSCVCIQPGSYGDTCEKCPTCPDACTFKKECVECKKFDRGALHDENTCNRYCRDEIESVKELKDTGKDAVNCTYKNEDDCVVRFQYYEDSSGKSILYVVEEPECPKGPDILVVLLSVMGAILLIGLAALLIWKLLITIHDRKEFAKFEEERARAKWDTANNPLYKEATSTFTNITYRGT

decrease in free intracellular Ca^2+ (Fluo-4, live-cell confocal imaging) in LPS-induced THP-1 macrophages after lunasin (1 µM), over 6.67 min (400 frames); resurgence after 30 min: 34.6%
Substance: Lunasin (peptide)
